Drawing on patent publication US9808434B2, “Compound for treating cancer and diabetes” (CITY OF HOPE, priority 2011, dated 2017), this text covers Km for 1 protein.

Substrate in this data set: O=C(Nc1cc(Cl)cc(Cl)c1)Nc1cc(Cl)cc(Cl)c1
Nature of the data set: Kinetics of GST-P using COH-SR4 as a substrate. The data set is classed as biochemical. Particulars: other: COH-SR4 as substrate, 1 mM GSH, pH 6.5, 340 nm, 37.0 °C. The protocol:
The cDNA of GSTP was cloned into the prokaryotic expression plasmid vector, pET30a(+) (Novagen), creating the GSTP-pET30a(+) plasmid free of extraneous sequences. Bam H1 and Xhol restriction sites were used for cloning. This plasmid was transfected into E. coli BL21 (DE3). Protein was expressed in E. coli BL21 (DE3) grown at 37° C. Once the OD600 reached 0.6 protein was induced with 0.4 mM IPTG.
All purification steps were carried out at 4° C. unless otherwise specified. All buffers were prepared fresh and filter sterilized. Briefly, bacteria was lysed in 10 mM K-PO4 buffer pH 7.0 containing 1.4 mM β-mercaptoethanol (Buffer A) and 100 μM PMSF followed by sonication at 50 rpm for 3 times at 30 sec each. […] The supernatant was mixed with GSH-affinity resin for coupling for overnight at 4° C. The unbound proteins were washed with Buffer B until OD at 280 nm is zero. Bound protein (purified GSTP) was eluted with 50 mM Tris-HCl, pH 9.6 containing 1.4 mM β-mercaptoethanol. Elutes protein was dialyzed against Buffer A for overnight and the GSTP protein concentration was checked by Bradford's assay.
Reaction systems were prepared by mixing COH-SR4 (50 μL, various final concentrations of 0˜10 μM), 100 μL of 10 mM GSH (GSH solution in GST assay buffer, pH 6.5), 10 μL of GSTP enzyme (0.52 mg/mL) and having 840 μL GST assay buffer (100 mM K-PO4 buffer, pH 6.5). […]

B1: GST-P (Homo sapiens) (protein)
chain: MPPYTVVYFPVRGRCAALRMLLADQGQSWKEEVVTVETWQEGSLKASCLYGQLPKFQDGDLTLYQSNTILRHLGRTLGLYGKDQQEAALVDMVNDGVEDLRCKYISLIYTNYEAGKDDYVKALPGQLKPFETLLSQNQGGKTFIVGDQISFADYNLLDLLLIHEVLAPGCLDAFPLLSAYVGRLSARPKLKAFLASPEYVNLPINGNGKQ
notes: made in house; host or cells: E. coli BL21 (DE3)
On to B1, for which the Michaelis-Menten constant (Km) was determined as 40 µM.
